{"source": "paper PMC2770179", "about": "(Journal of molecular catalysis. B, Enzymatic, 2009)", "binders": {"B1": {"name": "human pyruvate dehydrogenase (E1), wild type, α2β2 heterotetramer (complex)", "chain 1": "FANDATFEIKKCDLHRLEEGPPVTTVLTREDGLKYYRMMQTVRRMELKADQLYKQKIIRGFCHLCDGQEACCVGLEAGINPTDHLITAYRAHGFTFTRGLSVREILAELTGRKGGCAKGKGGSMHMYAKNFYGGNGIVGAQVPLGAGIALACKYNGKDEVCLTLYGDGAANQGQIFEAYNMAALWKLPCIFICENNRYGMGTSVERAAASTDYYKRGDFIPGLRVDGMDILCVREATRFAAAYCRSGKGPILMELQTYRYHGHSMSDPGVSYRTREEIQEVRSKSDPIMLLKDRMVNSNLASVEELKEIDVEVRKEIEDAAQFATADPEPPLEELGYHIYSSDPPFEVRGANQWIKFKSVS", "chain 2": "LQVTVRDAINQGMDEELERDEKVFLLGEEVAQYDGAYKVSRGLWKKYGDKRIIDTPISEMGFAGIAVGAAMAGLRPICEFMTFNFSMQAIDQVINSAAKTYYMSGGLQPVPIVFRGPNGASAGVAAQHSQCFAAWYGHCPGLKVVSPWNSEDAKGLIKSAIRDNNPVVVLENELMYGVPFEFPPEAQSKDFLIPIGKAKIERQGTHITVVSHSRPVGHCLEAAAVLSKEGVECEVINMRTIRPMDMETIEASVMKTNHLVTVEGGWPQFGVGAEICARIMEGPAFNFLDAPAVRVTGADVPMPYAKILEDNSIPQVKDIIFAIKKTLNI"}}, "key": {"[1]": {"target": "T1, L2S of hE2 (residues 128-330) mutant K276A (human, UniProt P10515 214-416, K276A)", "T1 sequence (looked up)": "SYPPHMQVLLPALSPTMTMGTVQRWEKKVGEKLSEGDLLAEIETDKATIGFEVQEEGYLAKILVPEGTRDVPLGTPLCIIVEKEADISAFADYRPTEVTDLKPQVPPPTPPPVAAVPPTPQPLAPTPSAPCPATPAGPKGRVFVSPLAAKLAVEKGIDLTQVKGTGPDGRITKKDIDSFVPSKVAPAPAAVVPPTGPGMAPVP", "assay": "SPR"}, "[2]": {"target": "T2, L2S of hE2 (residues 128-330) mutant R297A (human, UniProt P10515 214-416, R297A)", "T2 sequence (looked up)": "T1 sequence (looked up) with A149K, R170A", "assay": "SPR"}}, "note": "Residue numbers refer to the chain shown, from its start.", "data": [{"binder": "B1", "values": [{"measurement": "fold increase in KD against wild-type L2S", "setting": "[1]", "result": "~86", "unit": "fold"}, {"measurement": "fold increase in KD against wild-type L2S", "setting": "[2]", "result": 6.8, "unit": "fold"}]}]}
